Source: PMC9065133
“And” between values parts separate entries of the source, which are not always exact repeats. Equal values may be shown once.

What was measured:
Assay in all cases: SEC-MALLS
MVV IN F223A = details: IN injected at 2 mg/mL (bar); Superdex-200 column; parent: est. 170; read off a plot
MVV IN W245E = details: IN injected at 2 mg/mL (bar); Superdex-200 column; parent: est. 170; read off a plot
MVV IN H12N = details: IN injected at 2 mg/mL (bar); Superdex-200 column; parent: est. 170; read off a plot
[1] = target: maedi-visna virus (MVV) integrase, wild type, KV1772 isolate (maedi-visna virus (KV1772 isolate))
[2] = target: MVV IN H12N (maedi-visna virus (KV1772 isolate))
MVV IN Y261A = details: IN injected at 2 mg/mL (bar); Superdex-200 column; parent: est. 170; read off a plot
MVV IN V252A = details: IN injected at 2 mg/mL (bar); Superdex-200 column; parent: est. 170; read off a plot
[3] = target: MVV IN QQQ211PGG (maedi-visna virus (KV1772 isolate))
MVV IN V263E = details: IN injected at 2 mg/mL (bar); Superdex-200 column; parent: est. 170; read off a plot
[4] = target: MVV IN chimera QQQ211PFV304-314 (portion of the PFV IN CCD-CTD linker between MVV IN Gln210 and Gln214) (maedi-visna virus (KV1772 isolate) | prototype foamy virus (PFV))
MVV IN QQQ211PGG = details: IN injected at 2 mg/mL (bar); Superdex-200 column; parent: est. 170; read off a plot
MVV IN I272E = details: IN injected at 2 mg/mL (bar); Superdex-200 column; parent: est. 170; read off a plot
MVV IN R231E = details: IN injected at 2 mg/mL (bar); Superdex-200 column; parent: est. 170; read off a plot
[5] = target: MVV IN QQ207GP (maedi-visna virus (KV1772 isolate))
MVV IN W245A = details: IN injected at 2 mg/mL (bar); Superdex-200 column; parent: est. 170; read off a plot
MVV IN V252D = details: IN injected at 2 mg/mL (bar); Superdex-200 column; parent: est. 170; read off a plot
MVV IN QQ207GP = details: IN injected at 2 mg/mL (bar); Superdex-200 column; parent: est. 170; read off a plot
MVV IN Y261E = details: IN injected at 2 mg/mL (bar); Superdex-200 column; parent: est. 170; read off a plot
MVV IN Y225A = details: IN injected at 2 mg/mL (bar); Superdex-200 column; parent: est. 170; read off a plot
MVV IN E154Q = details: IN injected at 2 mg/mL (bar); Superdex-200 column; parent: est. 170; read off a plot
MVV IN W245L = details: IN injected at 2 mg/mL (bar); Superdex-200 column; parent: est. 170; read off a plot

Chain of maedi-visna virus (MVV) integrase, wild type, KV1772 isolate (P03370 1226-1506 limits assumed): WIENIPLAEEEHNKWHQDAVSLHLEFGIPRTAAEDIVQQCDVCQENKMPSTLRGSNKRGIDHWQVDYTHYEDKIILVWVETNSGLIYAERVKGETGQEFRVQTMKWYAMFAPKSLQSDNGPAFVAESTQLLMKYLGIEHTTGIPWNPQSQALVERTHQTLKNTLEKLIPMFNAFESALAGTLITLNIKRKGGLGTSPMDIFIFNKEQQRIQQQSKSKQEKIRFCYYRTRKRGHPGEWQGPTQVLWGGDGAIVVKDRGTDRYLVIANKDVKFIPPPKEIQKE

“maedi-visna virus (MVV) integrase, wild type, KV1772 isolate F223A” showed an other: average molecular mass (MVV IN F223A) of 120 kDa.
In the case of “maedi-visna virus (MVV) integrase, wild type, KV1772 isolate W245E”, the other: average molecular mass (MVV IN W245E) is reported as 90 kDa.
“maedi-visna virus (MVV) integrase, wild type, KV1772 isolate H12N” showed an other: average molecular mass (MVV IN H12N) of 40 kDa.
“maedi-visna virus (MVV) integrase, wild type, KV1772 isolate (enzyme)” was tested, and the stoichiometry N [1] was 4 and 8.
Work on MVV IN H12N (enzyme) yielded a stoichiometry N [2] of 2.
In the case of “maedi-visna virus (MVV) integrase, wild type, KV1772 isolate Y261A”, the other: average molecular mass (MVV IN Y261A) is reported as 100 kDa.
“maedi-visna virus (MVV) integrase, wild type, KV1772 isolate V252A” gave an other: average molecular mass (MVV IN V252A) of 120 kDa.
MVV IN QQQ211PGG (enzyme) was tested, and the stoichiometry N [3] was 2.
In the case of “maedi-visna virus (MVV) integrase, wild type, KV1772 isolate V263E”, the other: average molecular mass (MVV IN V263E) is reported as 110 kDa.
Substance “MVV IN chimera QQQ211PFV304-314 (portion of the PFV IN CCD-CTD linker between MVV IN Gln210 and Gln214) (enzyme)” has a stoichiometry N [4] of 2.
“maedi-visna virus (MVV) integrase, wild type, KV1772 isolate Q211P; Q212G; Q213G” gave an other: average molecular mass (MVV IN QQQ211PGG) of 65 kDa.
With “maedi-visna virus (MVV) integrase, wild type, KV1772 isolate I272E” the other: average molecular mass (MVV IN I272E) was 100 kDa.
For “maedi-visna virus (MVV) integrase, wild type, KV1772 isolate R231E”, the other: average molecular mass (MVV IN R231E) was 180 kDa.
Substance MVV IN QQ207GP (enzyme) has a stoichiometry N [5] of 2.
Work on “maedi-visna virus (MVV) integrase, wild type, KV1772 isolate W245A” yielded an other: average molecular mass (MVV IN W245A) of 120 kDa.
For “maedi-visna virus (MVV) integrase, wild type, KV1772 isolate V252D”, the other: average molecular mass (MVV IN V252D) was 80 kDa.
“maedi-visna virus (MVV) integrase, wild type, KV1772 isolate Q207G; Q208P” gave an other: average molecular mass (MVV IN QQ207GP) of 65 kDa.
“maedi-visna virus (MVV) integrase, wild type, KV1772 isolate Y261E” showed an other: average molecular mass (MVV IN Y261E) of 78 kDa.
For “maedi-visna virus (MVV) integrase, wild type, KV1772 isolate Y225A”, the other: average molecular mass (MVV IN Y225A) was 120 kDa.
“maedi-visna virus (MVV) integrase, wild type, KV1772 isolate E154Q” showed an other: average molecular mass (MVV IN E154Q) of 180 kDa.
Work on “maedi-visna virus (MVV) integrase, wild type, KV1772 isolate W245L” yielded an other: average molecular mass (MVV IN W245L) of 110 kDa.
